Test results from patent publication US20180333469A1 (PORTOLA PHARMACEUTICALS, published 2018).

T1: α-2-macroglobulin (UniProt P01023 24-1474)
T1 sequence (looked up): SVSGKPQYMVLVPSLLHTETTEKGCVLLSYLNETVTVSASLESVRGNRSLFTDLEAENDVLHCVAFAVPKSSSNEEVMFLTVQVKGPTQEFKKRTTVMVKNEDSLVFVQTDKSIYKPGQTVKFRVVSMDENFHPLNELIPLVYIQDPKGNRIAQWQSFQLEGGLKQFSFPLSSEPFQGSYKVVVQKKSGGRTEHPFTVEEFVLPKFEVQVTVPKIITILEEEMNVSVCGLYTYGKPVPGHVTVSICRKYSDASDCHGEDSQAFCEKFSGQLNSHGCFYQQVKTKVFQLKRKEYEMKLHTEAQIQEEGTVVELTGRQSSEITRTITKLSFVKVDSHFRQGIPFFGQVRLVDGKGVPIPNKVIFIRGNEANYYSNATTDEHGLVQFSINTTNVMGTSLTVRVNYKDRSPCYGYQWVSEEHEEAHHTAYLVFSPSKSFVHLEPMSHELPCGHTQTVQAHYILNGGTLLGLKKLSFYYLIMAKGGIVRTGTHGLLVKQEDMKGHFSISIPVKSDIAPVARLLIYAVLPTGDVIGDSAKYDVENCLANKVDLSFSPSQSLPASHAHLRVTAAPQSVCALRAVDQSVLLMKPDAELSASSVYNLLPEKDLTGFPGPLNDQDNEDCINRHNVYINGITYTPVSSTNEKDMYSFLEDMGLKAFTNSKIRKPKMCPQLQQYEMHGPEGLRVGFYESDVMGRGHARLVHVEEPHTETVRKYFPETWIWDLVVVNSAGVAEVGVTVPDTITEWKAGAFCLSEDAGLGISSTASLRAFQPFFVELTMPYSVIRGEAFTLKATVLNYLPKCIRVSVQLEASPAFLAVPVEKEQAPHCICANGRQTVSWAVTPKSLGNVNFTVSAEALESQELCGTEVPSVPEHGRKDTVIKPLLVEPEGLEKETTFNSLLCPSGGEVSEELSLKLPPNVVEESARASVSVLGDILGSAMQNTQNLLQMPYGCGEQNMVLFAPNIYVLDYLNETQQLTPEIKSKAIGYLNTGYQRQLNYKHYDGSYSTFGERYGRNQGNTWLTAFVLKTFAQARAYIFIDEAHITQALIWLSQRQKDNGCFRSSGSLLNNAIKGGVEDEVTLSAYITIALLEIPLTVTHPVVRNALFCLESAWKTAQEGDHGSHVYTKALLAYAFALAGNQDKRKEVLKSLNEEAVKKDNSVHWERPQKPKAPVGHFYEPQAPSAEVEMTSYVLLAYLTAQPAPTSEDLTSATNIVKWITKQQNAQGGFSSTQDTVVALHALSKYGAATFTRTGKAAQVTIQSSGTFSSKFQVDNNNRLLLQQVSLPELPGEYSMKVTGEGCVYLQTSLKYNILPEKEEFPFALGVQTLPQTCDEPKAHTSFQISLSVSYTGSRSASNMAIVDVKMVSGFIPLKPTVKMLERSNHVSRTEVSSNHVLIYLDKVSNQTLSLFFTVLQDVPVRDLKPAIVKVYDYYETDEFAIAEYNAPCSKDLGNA

T2: tissue factor pathway inhibitor (TFPI) (UniProt P10646 29-304, limits assumed)
T2 sequence (looked up): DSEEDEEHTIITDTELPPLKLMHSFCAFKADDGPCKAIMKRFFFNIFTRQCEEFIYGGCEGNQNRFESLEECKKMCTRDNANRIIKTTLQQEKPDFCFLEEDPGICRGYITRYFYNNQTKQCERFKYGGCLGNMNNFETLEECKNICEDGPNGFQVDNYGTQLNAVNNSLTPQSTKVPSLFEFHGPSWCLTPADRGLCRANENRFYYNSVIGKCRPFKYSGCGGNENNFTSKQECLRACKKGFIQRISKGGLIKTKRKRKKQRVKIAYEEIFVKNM

T3: factor VII (fVII) (UniProt P08709 61-466)
T3 sequence (looked up): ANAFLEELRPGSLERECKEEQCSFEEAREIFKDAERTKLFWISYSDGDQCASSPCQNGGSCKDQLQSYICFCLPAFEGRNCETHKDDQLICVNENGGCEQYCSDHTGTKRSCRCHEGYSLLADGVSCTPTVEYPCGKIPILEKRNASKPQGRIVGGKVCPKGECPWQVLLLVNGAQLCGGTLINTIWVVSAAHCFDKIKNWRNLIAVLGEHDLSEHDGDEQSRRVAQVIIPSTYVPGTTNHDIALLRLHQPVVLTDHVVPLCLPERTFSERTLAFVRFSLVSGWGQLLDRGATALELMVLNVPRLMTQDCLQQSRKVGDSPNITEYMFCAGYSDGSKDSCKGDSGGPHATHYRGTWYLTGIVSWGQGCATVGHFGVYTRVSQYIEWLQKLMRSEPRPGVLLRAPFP


Key:
α-2-macroglobulin [1] = target: T1, α-2-macroglobulin; assay: SPR, Biacore 3000, CM-5 chip (Prep 1)
Procedure: (§1) A few major plasma proteins, including tissue factor pathway inhibitor (TFPI), antithrombin III (ATIII), α-2-macroglobulin, α-1-antitrypsin, factor VII (fVII), factor X (fX), prothrombin, and factor V (fV), were tested for their binding affinity to a wild-type factor Xa (fXa) and two individual preparations (Prep 1 and Prep 2) of the fXa derivative (SEQ ID NO: 3). The binding experiment was conducted with a Biacore® 3000 with the fXa derivative immobilized on a CM-5 sensor chip according to manufacturer's instruction.

factor V (fV) [2] = target: T4, factor V (fV) (UniProt P12259 29-2224); assay: SPR, Biacore 3000, CM-5 chip (Prep 1)
Procedure: as §1

factor X (fX) [3] = target: T5, factor X (fX) (UniProt P00742 41-488); assay: SPR, Biacore 3000, CM-5 chip (Prep 1)
Procedure: as §1

prothrombin [4] = target: T6, prothrombin (UniProt P00734 44-622); assay: SPR, Biacore 3000, CM-5 chip (Prep 1)
Procedure: as §1

α-1-antitrypsin [5] = target: T7, α-1-antitrypsin (UniProt P01009 25-418); assay: SPR, Biacore 3000, CM-5 chip (Prep 1)
Procedure: as §1

[6] = target: T2, tissue factor pathway inhibitor (TFPI); assay: Kd of fXa derivative-TFPI over Ki of TFPI-fXa, fXa chromogenic assay (FIG. 1C)
factor VII (fVII) [7] = target: T3, factor VII (fVII); assay: SPR, Biacore 3000, fXa derivative immobilized on CM-5 chip
Procedure: as §1

[8] = target: T2, tissue factor pathway inhibitor (TFPI); assay: competition in the fXa chromogenic activity assay: SEQ ID NO: 3 competes with fXa (1.0 nM) for TFPI (1.0 nM)
[9] = target: T2, tissue factor pathway inhibitor (TFPI); assay: Kd of fXa derivative-TFPI over Ki of TFPI-fXa, fXa chromogenic assay (FIG. 1D)
Procedure: The binding kinetics were determined using three different concentrations of the fXa derivative (0, 1 nM, and 5 nM) and escalating doses of TFPI, up to about 12 nM. fXa chromogenic activity was measured following a 2 hour incubation of fXa (1 nM). Residual fXa activity was measured by cleavage of the peptidyl substrate Spectrozyme-fXa (100 μM).

[10] = target: T2, tissue factor pathway inhibitor (TFPI); assay: competition in the fXa chromogenic activity assay: SEQ ID NO: 3 competes with fXa (0.5 nM) for TFPI (1.0 nM)
[11] = target: T2, tissue factor pathway inhibitor (TFPI); assay: cell-based or functional assay
factor VII (fVII) [12] = target: T3, factor VII (fVII); assay: SPR, Biacore 3000, CM-5 chip
Procedure: as §1

α-2-macroglobulin [13] = target: T1, α-2-macroglobulin; assay: SPR, Biacore 3000, CM-5 chip
Procedure: as §1

antithrombin III (ATIII) = antithrombin III (ATIII) (UniProt P01008 33-464); assay: SPR, Biacore 3000, CM-5 chip
Procedure: as §1

factor V (fV) [14] = target: T4, factor V (fV); assay: SPR, Biacore 3000, CM-5 chip
Procedure: as §1

factor X (fX) [15] = target: T5, factor X (fX); assay: SPR, Biacore 3000, CM-5 chip
Procedure: as §1

prothrombin [16] = target: T6, prothrombin; assay: SPR, Biacore 3000, CM-5 chip
Procedure: as §1

α-1-antitrypsin [17] = target: T7, α-1-antitrypsin; assay: SPR, Biacore 3000, CM-5 chip
Procedure: as §1

T4 sequence (P12259 29-2224 limits assumed): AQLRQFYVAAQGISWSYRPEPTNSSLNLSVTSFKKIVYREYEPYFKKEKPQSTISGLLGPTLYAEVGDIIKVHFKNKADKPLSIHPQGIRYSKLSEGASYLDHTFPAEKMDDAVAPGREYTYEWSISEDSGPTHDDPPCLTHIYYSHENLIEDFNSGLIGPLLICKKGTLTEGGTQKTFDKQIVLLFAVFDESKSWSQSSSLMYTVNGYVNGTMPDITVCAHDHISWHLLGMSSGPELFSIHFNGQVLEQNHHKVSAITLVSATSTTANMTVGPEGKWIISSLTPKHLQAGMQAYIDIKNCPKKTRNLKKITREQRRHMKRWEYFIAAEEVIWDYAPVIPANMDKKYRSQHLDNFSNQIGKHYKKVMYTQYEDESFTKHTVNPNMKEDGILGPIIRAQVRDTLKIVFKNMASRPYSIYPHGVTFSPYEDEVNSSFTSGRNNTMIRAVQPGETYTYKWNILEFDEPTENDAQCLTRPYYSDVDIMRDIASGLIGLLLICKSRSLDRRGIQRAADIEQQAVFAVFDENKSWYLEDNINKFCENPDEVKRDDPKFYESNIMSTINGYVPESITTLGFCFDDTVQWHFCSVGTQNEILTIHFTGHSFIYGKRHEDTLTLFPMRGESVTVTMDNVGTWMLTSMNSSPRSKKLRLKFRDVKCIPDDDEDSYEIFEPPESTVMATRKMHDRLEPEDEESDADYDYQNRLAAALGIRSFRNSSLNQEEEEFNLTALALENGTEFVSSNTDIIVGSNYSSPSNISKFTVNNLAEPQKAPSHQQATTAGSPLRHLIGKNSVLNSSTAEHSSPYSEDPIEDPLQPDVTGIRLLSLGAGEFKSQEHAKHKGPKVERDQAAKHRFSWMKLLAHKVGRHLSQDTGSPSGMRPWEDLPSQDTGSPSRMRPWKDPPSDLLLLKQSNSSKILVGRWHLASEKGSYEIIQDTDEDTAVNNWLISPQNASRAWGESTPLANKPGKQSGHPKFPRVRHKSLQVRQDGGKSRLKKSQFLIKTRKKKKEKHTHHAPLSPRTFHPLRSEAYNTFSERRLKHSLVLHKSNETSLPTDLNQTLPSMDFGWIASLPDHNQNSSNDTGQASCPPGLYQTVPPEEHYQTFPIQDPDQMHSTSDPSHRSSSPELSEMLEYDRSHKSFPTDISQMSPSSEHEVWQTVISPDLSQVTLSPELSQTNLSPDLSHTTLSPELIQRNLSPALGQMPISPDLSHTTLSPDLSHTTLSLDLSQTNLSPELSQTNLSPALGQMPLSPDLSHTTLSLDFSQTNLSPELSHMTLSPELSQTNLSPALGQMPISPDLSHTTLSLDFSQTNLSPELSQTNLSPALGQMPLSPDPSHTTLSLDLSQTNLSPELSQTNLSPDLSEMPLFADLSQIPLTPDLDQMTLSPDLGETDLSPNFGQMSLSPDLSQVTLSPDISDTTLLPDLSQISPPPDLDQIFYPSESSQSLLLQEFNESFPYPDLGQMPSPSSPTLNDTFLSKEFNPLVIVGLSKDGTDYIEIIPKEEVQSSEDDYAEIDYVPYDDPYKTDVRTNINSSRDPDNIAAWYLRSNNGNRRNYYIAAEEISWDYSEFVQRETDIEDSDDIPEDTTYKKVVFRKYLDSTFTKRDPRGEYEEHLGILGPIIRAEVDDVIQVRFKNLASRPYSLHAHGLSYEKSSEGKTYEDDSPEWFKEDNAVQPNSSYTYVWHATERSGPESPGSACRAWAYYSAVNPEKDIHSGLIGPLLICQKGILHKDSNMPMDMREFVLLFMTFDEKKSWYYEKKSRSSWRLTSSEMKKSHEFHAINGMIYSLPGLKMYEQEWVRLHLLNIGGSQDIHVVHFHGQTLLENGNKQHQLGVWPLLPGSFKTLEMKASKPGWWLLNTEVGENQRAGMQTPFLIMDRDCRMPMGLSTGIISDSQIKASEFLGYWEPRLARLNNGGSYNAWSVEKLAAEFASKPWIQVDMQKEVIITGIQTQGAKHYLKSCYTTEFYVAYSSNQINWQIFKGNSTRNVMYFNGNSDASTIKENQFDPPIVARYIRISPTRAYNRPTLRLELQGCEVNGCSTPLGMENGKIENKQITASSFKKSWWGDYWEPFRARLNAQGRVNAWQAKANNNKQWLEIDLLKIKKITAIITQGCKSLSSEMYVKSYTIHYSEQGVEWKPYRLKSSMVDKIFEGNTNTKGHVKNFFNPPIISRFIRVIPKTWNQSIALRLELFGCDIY
T7 sequence (P01009 25-418 limits assumed): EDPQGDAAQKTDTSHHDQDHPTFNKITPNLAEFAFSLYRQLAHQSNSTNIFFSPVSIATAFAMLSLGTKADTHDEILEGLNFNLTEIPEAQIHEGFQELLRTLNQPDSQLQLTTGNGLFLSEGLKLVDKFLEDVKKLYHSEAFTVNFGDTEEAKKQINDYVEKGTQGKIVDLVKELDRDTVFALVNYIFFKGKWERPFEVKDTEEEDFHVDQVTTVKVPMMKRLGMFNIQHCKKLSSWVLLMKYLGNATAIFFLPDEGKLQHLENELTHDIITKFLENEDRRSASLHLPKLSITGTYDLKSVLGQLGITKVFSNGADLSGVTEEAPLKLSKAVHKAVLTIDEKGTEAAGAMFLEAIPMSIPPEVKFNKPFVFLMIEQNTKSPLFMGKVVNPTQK
antithrombin III (ATIII), sequence (P01008 33-464 limits assumed): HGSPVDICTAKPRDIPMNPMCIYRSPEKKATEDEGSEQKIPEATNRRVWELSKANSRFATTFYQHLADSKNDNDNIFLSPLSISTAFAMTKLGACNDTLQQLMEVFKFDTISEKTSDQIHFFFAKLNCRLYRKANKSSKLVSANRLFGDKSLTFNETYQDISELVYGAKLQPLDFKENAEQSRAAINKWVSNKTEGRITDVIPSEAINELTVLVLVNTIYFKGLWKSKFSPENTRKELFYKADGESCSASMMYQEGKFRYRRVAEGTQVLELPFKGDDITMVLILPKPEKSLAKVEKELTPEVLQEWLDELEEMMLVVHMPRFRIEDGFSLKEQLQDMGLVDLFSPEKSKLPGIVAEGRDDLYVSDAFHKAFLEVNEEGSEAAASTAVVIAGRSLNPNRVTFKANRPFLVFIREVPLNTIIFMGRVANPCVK

Row | Binder | binding result (α-2-macroglobulin [1]) | binding result (factor V (fV) [2]) | binding result (factor X (fX) [3]) | binding result (prothrombin [4]) | binding result (α-1-antitrypsin [5]) | Ratio (Kd/Ki) [6] | Kd (factor VII (fVII) [7]) [nM] | EC50 (read off the curve) [8] [nM] | Ratio (Kd/Ki) [9] | EC50 (read off the curve) [10] [nM] | EC50 (read off the curve): fXa formed after 15 min by fVIIa/TF with 2.4 nM TFPI [11] [nM] | Kd (factor VII (fVII) [12]) [nM] | binding result (α-2-macroglobulin [13]) | Kd (antithrombin III (ATIII)) [µM] | binding result (factor V (fV) [14]) | binding result (factor X (fX) [15]) | binding result (prothrombin [16]) | binding result (α-1-antitrypsin [17])
1 | fXa derivative (SEQ ID NO: 3) (other, Prep 1 and Prep 2 are two preparations of the same molecule; also called fXa derivative Prep 1; fXa derivative Prep 2) light: ANSFLFWNKYKDGDQCETSPCQNQGKCKDGLGEYTCTCLEGFEGKNCELFTRKLCSLDNGDCDQFCHEEQNSVVCSCARGYTLADNGKACIPTGPYPCGKQTLER heavy: IVGGQECKDGECPWQALLINEENEGFCGGTILSEFYILTAAHCLYQAKRFKVRVGDRNTEQEEGGEAVHEVEVVIKHNRFTKETYDFDIAVLRLKTPITFRMNVAPACLPERDWAESTLMTQKTGIVSGFGRTHEKGRQSTRLKMLEVPYVDRNSCKLSSSFIITQNMFCAGYDTKQEDACQGDAGGPHVTRFKDTYFVTGIVSWGEGCARKGKYGIYTKVTAFLKWIDRSMKTRGLPKAKSHAPEVITSSPLK | no binding | no binding | no binding | no binding | no binding | 2.69 | 2780 | ~2 | 4.97 | ~2 | ~5 | – | – | – | – | – | – | –
2 | wild-type factor Xa (fXa) (enzyme, 11 gamma-carboxyglutamic acid residues (Gla) in the Gla domain, residues 1-45 of SEQ ID NO. 1) light: ANSFLEEMKKGHLERECMEETCSYEEAREVFEDSDKTNEFWNKYKDGDQCETSPCQNQGKCKDGLGEYTCTCLEGFEGKNCELFTRKLCSLDNGDCDQFCHEEQNSVVCSCARGYTLADNGKACIPTGPYPCGKQTLER heavy: IVGGQECKDGECPWQALLINEENEGFCGGTILSEFYILTAAHCLYQAKRFKVRVGDRNTEQEEGGEAVHEVEVVIKHNRFTKETYDFDIAVLRLKTPITFRMNVAPACLPERDWAESTLMTQKTGIVSGFGRTHEKGRQSTRLKMLEVPYVDRNSCKLSSSFIITQNMFCAGYDTKQEDACQGDSGGPHVTRFKDTYFVTGIVSWGEGCARKGKYGIYTKVTAFLKWIDRSMKTRGLPKAKSHAPEVITSSPLK | – | – | – | – | – | – | – | – | – | – | – | 2970 | no binding | 1.06 to 13.2 | no binding | no binding | no binding | no binding
